For orientation: Kd means the concentration at which binding is half-saturated. A high value points to lower affinity.

The chains are these.
T1: human IL-12 (human, UniProt P29460 23-328; P29459 23-219)
T1 construct: also called Interleukin-12
T1 sequence 1: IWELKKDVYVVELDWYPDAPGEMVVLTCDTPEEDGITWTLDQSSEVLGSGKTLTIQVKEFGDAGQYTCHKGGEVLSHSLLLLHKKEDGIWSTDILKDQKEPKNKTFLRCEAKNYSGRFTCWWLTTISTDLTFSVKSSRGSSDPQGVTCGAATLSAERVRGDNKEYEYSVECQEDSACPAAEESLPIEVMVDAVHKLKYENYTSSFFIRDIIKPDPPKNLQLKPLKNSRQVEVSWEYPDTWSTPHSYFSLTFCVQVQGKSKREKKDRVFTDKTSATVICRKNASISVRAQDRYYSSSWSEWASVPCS
T1 sequence 2: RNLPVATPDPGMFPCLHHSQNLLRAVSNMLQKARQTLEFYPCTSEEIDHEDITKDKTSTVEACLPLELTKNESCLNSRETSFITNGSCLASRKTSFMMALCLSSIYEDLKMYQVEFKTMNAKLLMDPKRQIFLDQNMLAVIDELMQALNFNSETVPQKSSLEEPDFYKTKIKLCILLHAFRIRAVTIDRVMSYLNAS

B1: Anti-IL-12 antibody Ab1 (Ab101H-12aa-C8/Ab102L-SK1) (antibody)
heavy: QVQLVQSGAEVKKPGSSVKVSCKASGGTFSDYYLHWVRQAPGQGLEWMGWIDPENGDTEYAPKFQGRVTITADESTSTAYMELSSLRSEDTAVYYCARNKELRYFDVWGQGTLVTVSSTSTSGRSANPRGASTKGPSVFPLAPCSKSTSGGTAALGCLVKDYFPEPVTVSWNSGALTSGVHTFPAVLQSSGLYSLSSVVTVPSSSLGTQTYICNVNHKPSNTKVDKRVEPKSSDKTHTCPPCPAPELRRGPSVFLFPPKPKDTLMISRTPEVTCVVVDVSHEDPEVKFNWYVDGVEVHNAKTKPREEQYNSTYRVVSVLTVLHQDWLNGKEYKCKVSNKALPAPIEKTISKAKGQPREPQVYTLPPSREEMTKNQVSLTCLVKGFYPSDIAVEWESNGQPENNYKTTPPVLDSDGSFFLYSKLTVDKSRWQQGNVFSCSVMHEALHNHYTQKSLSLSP
light: DIVMTQSPLSLPVTPGEPASISCRASQSISINLHWYQQKPGQAPRLLIYFASQSISGVPSRFSGSGSGTDFTLTISSLQPEDFATYYCQQSNSFPLTFGQGTKVEIKRTVAAPSVFIFPPSDEQLKSGTASVVCLLNNFYPREAKVQWKVDNALQSGNSQESVTEQDSKDSTYSLSSTLTLSKADYEKHKVYACEVTHQGLSSPVTKSFNRGEC
notes: Homodimer of light chain and heavy chain; also called -/- (control)
B2: Anti-IL-12 antibody Ab1 variant -/F98A VL (antibody)
heavy: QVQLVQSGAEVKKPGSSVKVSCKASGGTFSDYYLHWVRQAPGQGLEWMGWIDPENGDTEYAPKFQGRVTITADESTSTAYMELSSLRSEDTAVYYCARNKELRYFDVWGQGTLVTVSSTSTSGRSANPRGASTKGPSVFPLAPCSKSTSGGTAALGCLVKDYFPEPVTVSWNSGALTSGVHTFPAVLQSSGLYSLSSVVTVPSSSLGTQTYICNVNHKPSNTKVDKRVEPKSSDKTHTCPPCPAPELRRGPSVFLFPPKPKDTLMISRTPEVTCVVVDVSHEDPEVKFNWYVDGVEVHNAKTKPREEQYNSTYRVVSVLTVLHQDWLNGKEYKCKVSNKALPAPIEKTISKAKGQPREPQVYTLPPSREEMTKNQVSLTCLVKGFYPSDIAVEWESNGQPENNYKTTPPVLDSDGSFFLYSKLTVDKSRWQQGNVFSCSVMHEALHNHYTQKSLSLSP
light: DIVMTQSPLSLPVTPGEPASISCRASQSISINLHWYQQKPGQAPRLLIYFASQSISGVPSRFSGSGSGTDFTLTISSLQPEDFATYYCQQSNSFPLTAGQGTKVEIKRTVAAPSVFIFPPSDEQLKSGTASVVCLLNNFYPREAKVQWKVDNALQSGNSQESVTEQDSKDSTYSLSSTLTLSKADYEKHKVYACEVTHQGLSSPVTKSFNRGEC
notes: Ab1 with VH/VL interface substitutions; Kabat numbering
B3: Anti-IL-12 antibody Ab1 variant -/Y87A VL (antibody, V domains shown)
VH: QVQLVQSGAEVKKPGSSVKVSCKASGGTFSDYYLHWVRQAPGQGLEWMGWIDPENGDTEYAPKFQGRVTITADESTSTAYMELSSLRSEDTAVYYCARNKELRYFDVWGQGTLVTVSS
VL: DIVMTQSPLSLPVTPGEPASISCRASQSISINLHWYQQKPGQAPRLLIYFASQSISGVPSRFSGSGSGTDFTLTISSLQPEDFATYACQQSNSFPLTFGQGTKVEIKR
notes: as for B2
B4: Anti-IL-12 antibody Ab1 variant -/L46Q VL (antibody, V domains shown)
VH: QVQLVQSGAEVKKPGSSVKVSCKASGGTFSDYYLHWVRQAPGQGLEWMGWIDPENGDTEYAPKFQGRVTITADESTSTAYMELSSLRSEDTAVYYCARNKELRYFDVWGQGTLVTVSS
VL: DIVMTQSPLSLPVTPGEPASISCRASQSISINLHWYQQKPGQAPRQLIYFASQSISGVPSRFSGSGSGTDFTLTISSLQPEDFATYYCQQSNSFPLTFGQGTKVEIKR
notes: as for B2
B5: Anti-IL-12 antibody Ab1 variant F100aI VH/A43Q, Y49A VL (antibody, name in Kabat numbering, V domains shown)
VH: QVQLVQSGAEVKKPGSSVKVSCKASGGTFSDYYLHWVRQAPGQGLEWMGWIDPENGDTEYAPKFQGRVTITADESTSTAYMELSSLRSEDTAVYYCARNKELRYIDVWGQGTLVTVSS
VL: DIVMTQSPLSLPVTPGEPASISCRASQSISINLHWYQQKPGQQPRLLIAFASQSISGVPSRFSGSGSGTDFTLTISSLQPEDFATYYCQQSNSFPLTFGQGTKVEIKR
notes: as for B2
B6: Anti-IL-12 antibody Ab1 variant -/P44Q VL (antibody, V domains shown)
VH: QVQLVQSGAEVKKPGSSVKVSCKASGGTFSDYYLHWVRQAPGQGLEWMGWIDPENGDTEYAPKFQGRVTITADESTSTAYMELSSLRSEDTAVYYCARNKELRYFDVWGQGTLVTVSS
VL: DIVMTQSPLSLPVTPGEPASISCRASQSISINLHWYQQKPGQAQRLLIYFASQSISGVPSRFSGSGSGTDFTLTISSLQPEDFATYYCQQSNSFPLTFGQGTKVEIKR
notes: as for B2
B7: Anti-IL-12 antibody Ab1 variant F100aI VH/A43Q, L46Q, Y49A VL (antibody, name in Kabat numbering, V domains shown)
VH: QVQLVQSGAEVKKPGSSVKVSCKASGGTFSDYYLHWVRQAPGQGLEWMGWIDPENGDTEYAPKFQGRVTITADESTSTAYMELSSLRSEDTAVYYCARNKELRYIDVWGQGTLVTVSS
VL: DIVMTQSPLSLPVTPGEPASISCRASQSISINLHWYQQKPGQQPRQLIAFASQSISGVPSRFSGSGSGTDFTLTISSLQPEDFATYYCQQSNSFPLTFGQGTKVEIKR
notes: as for B2
B8: Anti-IL-12 antibody Ab1 variant F100aI VH/P44A, Y49A VL (antibody, name in Kabat numbering, V domains shown)
VH: QVQLVQSGAEVKKPGSSVKVSCKASGGTFSDYYLHWVRQAPGQGLEWMGWIDPENGDTEYAPKFQGRVTITADESTSTAYMELSSLRSEDTAVYYCARNKELRYIDVWGQGTLVTVSS
VL: DIVMTQSPLSLPVTPGEPASISCRASQSISINLHWYQQKPGQAARLLIAFASQSISGVPSRFSGSGSGTDFTLTISSLQPEDFATYYCQQSNSFPLTFGQGTKVEIKR
notes: as for B2
B9: Anti-IL-12 antibody Ab1 variant -/F98M VL (antibody)
heavy: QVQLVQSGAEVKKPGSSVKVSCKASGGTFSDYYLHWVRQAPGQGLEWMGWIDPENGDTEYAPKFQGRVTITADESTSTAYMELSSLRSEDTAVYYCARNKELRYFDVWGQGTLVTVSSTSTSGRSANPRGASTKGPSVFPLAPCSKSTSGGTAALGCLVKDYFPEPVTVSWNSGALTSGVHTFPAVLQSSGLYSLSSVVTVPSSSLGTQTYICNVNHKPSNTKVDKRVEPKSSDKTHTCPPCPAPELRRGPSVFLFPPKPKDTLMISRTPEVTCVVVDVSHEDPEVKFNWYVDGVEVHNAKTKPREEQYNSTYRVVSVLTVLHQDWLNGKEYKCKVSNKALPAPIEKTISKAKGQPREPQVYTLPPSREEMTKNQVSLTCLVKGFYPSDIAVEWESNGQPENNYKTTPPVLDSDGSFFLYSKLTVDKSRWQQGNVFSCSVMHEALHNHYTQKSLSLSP
light: DIVMTQSPLSLPVTPGEPASISCRASQSISINLHWYQQKPGQAPRLLIYFASQSISGVPSRFSGSGSGTDFTLTISSLQPEDFATYYCQQSNSFPLTMGQGTKVEIKRTVAAPSVFIFPPSDEQLKSGTASVVCLLNNFYPREAKVQWKVDNALQSGNSQESVTEQDSKDSTYSLSSTLTLSKADYEKHKVYACEVTHQGLSSPVTKSFNRGEC
notes: as for B2
B10: Anti-IL-12 antibody Ab1 variant -/Y49A VL (antibody, V domains shown)
VH: QVQLVQSGAEVKKPGSSVKVSCKASGGTFSDYYLHWVRQAPGQGLEWMGWIDPENGDTEYAPKFQGRVTITADESTSTAYMELSSLRSEDTAVYYCARNKELRYFDVWGQGTLVTVSS
VL: DIVMTQSPLSLPVTPGEPASISCRASQSISINLHWYQQKPGQAPRLLIAFASQSISGVPSRFSGSGSGTDFTLTISSLQPEDFATYYCQQSNSFPLTFGQGTKVEIKR
notes: as for B2
B11: Anti-IL-12 antibody Ab1 variant -/Y87M VL (antibody, V domains shown)
VH: QVQLVQSGAEVKKPGSSVKVSCKASGGTFSDYYLHWVRQAPGQGLEWMGWIDPENGDTEYAPKFQGRVTITADESTSTAYMELSSLRSEDTAVYYCARNKELRYFDVWGQGTLVTVSS
VL: DIVMTQSPLSLPVTPGEPASISCRASQSISINLHWYQQKPGQAPRLLIYFASQSISGVPSRFSGSGSGTDFTLTISSLQPEDFATYMCQQSNSFPLTFGQGTKVEIKR
notes: as for B2
B12: Anti-IL-12 antibody Ab1 variant -/Y87L VL (antibody, V domains shown)
VH: QVQLVQSGAEVKKPGSSVKVSCKASGGTFSDYYLHWVRQAPGQGLEWMGWIDPENGDTEYAPKFQGRVTITADESTSTAYMELSSLRSEDTAVYYCARNKELRYFDVWGQGTLVTVSS
VL: DIVMTQSPLSLPVTPGEPASISCRASQSISINLHWYQQKPGQAPRLLIYFASQSISGVPSRFSGSGSGTDFTLTISSLQPEDFATYLCQQSNSFPLTFGQGTKVEIKR
notes: as for B2
B13: Anti-IL-12 antibody Ab1 variant -/A43Q VL (antibody, V domains shown)
VH: QVQLVQSGAEVKKPGSSVKVSCKASGGTFSDYYLHWVRQAPGQGLEWMGWIDPENGDTEYAPKFQGRVTITADESTSTAYMELSSLRSEDTAVYYCARNKELRYFDVWGQGTLVTVSS
VL: DIVMTQSPLSLPVTPGEPASISCRASQSISINLHWYQQKPGQQPRLLIYFASQSISGVPSRFSGSGSGTDFTLTISSLQPEDFATYYCQQSNSFPLTFGQGTKVEIKR
notes: as for B2
B14: Anti-IL-12 antibody Ab1 variant -/P44A VL (antibody, V domains shown)
VH: QVQLVQSGAEVKKPGSSVKVSCKASGGTFSDYYLHWVRQAPGQGLEWMGWIDPENGDTEYAPKFQGRVTITADESTSTAYMELSSLRSEDTAVYYCARNKELRYFDVWGQGTLVTVSS
VL: DIVMTQSPLSLPVTPGEPASISCRASQSISINLHWYQQKPGQAARLLIYFASQSISGVPSRFSGSGSGTDFTLTISSLQPEDFATYYCQQSNSFPLTFGQGTKVEIKR
notes: as for B2
B15: Anti-IL-12 antibody Ab1 variant -/F98L VL (antibody)
heavy: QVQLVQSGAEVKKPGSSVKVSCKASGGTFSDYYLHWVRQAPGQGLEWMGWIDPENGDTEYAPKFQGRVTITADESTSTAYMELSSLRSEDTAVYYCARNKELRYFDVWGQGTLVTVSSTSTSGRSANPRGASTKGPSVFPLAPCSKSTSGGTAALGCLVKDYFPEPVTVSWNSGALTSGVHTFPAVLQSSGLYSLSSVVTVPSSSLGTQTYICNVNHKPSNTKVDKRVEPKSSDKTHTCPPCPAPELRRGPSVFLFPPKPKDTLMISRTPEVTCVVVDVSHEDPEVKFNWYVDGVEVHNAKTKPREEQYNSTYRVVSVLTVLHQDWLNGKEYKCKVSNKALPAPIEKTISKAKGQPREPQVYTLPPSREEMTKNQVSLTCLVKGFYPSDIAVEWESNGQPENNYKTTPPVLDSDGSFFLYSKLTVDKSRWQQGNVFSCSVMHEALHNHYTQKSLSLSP
light: DIVMTQSPLSLPVTPGEPASISCRASQSISINLHWYQQKPGQAPRLLIYFASQSISGVPSRFSGSGSGTDFTLTISSLQPEDFATYYCQQSNSFPLTLGQGTKVEIKRTVAAPSVFIFPPSDEQLKSGTASVVCLLNNFYPREAKVQWKVDNALQSGNSQESVTEQDSKDSTYSLSSTLTLSKADYEKHKVYACEVTHQGLSSPVTKSFNRGEC
notes: as for B2
B16: Anti-IL-12 antibody Ab1 variant F100aI VH/L46Q, Y49A, Y87M VL (antibody, name in Kabat numbering, V domains shown)
VH: QVQLVQSGAEVKKPGSSVKVSCKASGGTFSDYYLHWVRQAPGQGLEWMGWIDPENGDTEYAPKFQGRVTITADESTSTAYMELSSLRSEDTAVYYCARNKELRYIDVWGQGTLVTVSS
VL: DIVMTQSPLSLPVTPGEPASISCRASQSISINLHWYQQKPGQAPRQLIAFASQSISGVPSRFSGSGSGTDFTLTISSLQPEDFATYMCQQSNSFPLTFGQGTKVEIKR
notes: as for B2
B17: Anti-IL-12 antibody Ab1 variant F100aI VH/- (antibody, name in Kabat numbering, V domains shown)
VH: QVQLVQSGAEVKKPGSSVKVSCKASGGTFSDYYLHWVRQAPGQGLEWMGWIDPENGDTEYAPKFQGRVTITADESTSTAYMELSSLRSEDTAVYYCARNKELRYIDVWGQGTLVTVSS
VL: DIVMTQSPLSLPVTPGEPASISCRASQSISINLHWYQQKPGQAPRLLIYFASQSISGVPSRFSGSGSGTDFTLTISSLQPEDFATYYCQQSNSFPLTFGQGTKVEIKR
notes: Ab1 with a CDR substitution at the VH/VL interface; Kabat numbering
B18: Anti-IL-12 antibody Ab1 variant F100aI VH/L46Q, Y49A VL (antibody, name in Kabat numbering, V domains shown)
VH: QVQLVQSGAEVKKPGSSVKVSCKASGGTFSDYYLHWVRQAPGQGLEWMGWIDPENGDTEYAPKFQGRVTITADESTSTAYMELSSLRSEDTAVYYCARNKELRYIDVWGQGTLVTVSS
VL: DIVMTQSPLSLPVTPGEPASISCRASQSISINLHWYQQKPGQAPRQLIAFASQSISGVPSRFSGSGSGTDFTLTISSLQPEDFATYYCQQSNSFPLTFGQGTKVEIKR
notes: as for B2
B19: Anti-IL-12 antibody Ab1 variant -/P44S VL (antibody, V domains shown)
VH: QVQLVQSGAEVKKPGSSVKVSCKASGGTFSDYYLHWVRQAPGQGLEWMGWIDPENGDTEYAPKFQGRVTITADESTSTAYMELSSLRSEDTAVYYCARNKELRYFDVWGQGTLVTVSS
VL: DIVMTQSPLSLPVTPGEPASISCRASQSISINLHWYQQKPGQASRLLIYFASQSISGVPSRFSGSGSGTDFTLTISSLQPEDFATYYCQQSNSFPLTFGQGTKVEIKR
notes: as for B2

This assay addresses T1, human IL-12. Kind of assay: SPR (Biacore T200), 37 C, pH 7.4; captured antibody, IL-12 analyte. The procedure:
The affinity of anti-IL-12 antibodies binding to human IL-12 at pH 7.4 were determined at 37 degrees C. using Biacore T200 instrument (Cytiva). Anti-human Fc antibody (Cytiva) was immobilized onto all flow cells (FCs) of a CM4 sensor chip using amine coupling kit (Cytiva). All antibodies and analytes were prepared in ACES pH 7.4 containing 20 mM ACES, 150 mM NaCl, 0.05% Tween 20, 0.005% NaN₃. Each antibody was captured onto the sensor surface by anti-human Fc antibody. Antibody capture levels were aimed at 50 response unit (RU). 5 nM of human IL-12 were injected as analyte, followed by dissociation. Sensor surface was regenerated each cycle with 3M MgCl₂. […] Based on the results in Table 9, it is observed that binding kinetics of anti-IL-12 antibody AbI variants towards IL-12 were not drastically changed compared to control (−/−).
(In general: In SPR one partner is held on a chip, and binding of the other changes the refractive index at the surface.)
Take B1: the Kd was found to be 0.948 nM.

B2 gave a Kd of 1.03 nM.

In the case of B3, the Kd was 1.21 nM.

Consider B4, for which the affinity, expressed as Kd, was 1.62 nM.

Consider B5, for which the affinity, expressed as Kd, was 1.33 nM.

Turning to B6, the Kd is 0.94 nM.

B7 returned a Kd of 3.56 nM.

As to B8, binding was characterised by a dissociation constant (Kd) of 1.25 nM.

In the case of B9, the Kd came out at 0.685 nM.

The molecule B10 registered a Kd of 1.74 nM.

The molecule B11 returned a Kd of 1.22 nM.

B12 displayed a Kd of 1.46 nM.

The molecule B13 yielded an equilibrium dissociation constant (Kd) of 0.937 nM. Against the preceding molecule, the Kd is about 1.6-fold lower.

As for B14, the equilibrium dissociation constant (Kd) turned out to be 0.858 nM.

B15: the affinity, expressed as Kd, was 0.499 nM.

In turn, B16 had a Kd of 3.68 nM.

B17 showed a Kd of 0.571 nM.

B18 displayed a Kd of 3.48 nM. Compared with the last molecule, the Kd is about 6.1-fold higher.

In turn, B19 gave a Kd of 1.17 nM.
